From IntAct's records for PubMed 29541021

Key:
[1] = molecular target: 1433f_human YWHAH (UniProt Q04917)
[2] = molecular target: dnm1l_human DNM1L (UniProt O00429)
dnm1l_human DNM1L, sequence (O00429 whole entry): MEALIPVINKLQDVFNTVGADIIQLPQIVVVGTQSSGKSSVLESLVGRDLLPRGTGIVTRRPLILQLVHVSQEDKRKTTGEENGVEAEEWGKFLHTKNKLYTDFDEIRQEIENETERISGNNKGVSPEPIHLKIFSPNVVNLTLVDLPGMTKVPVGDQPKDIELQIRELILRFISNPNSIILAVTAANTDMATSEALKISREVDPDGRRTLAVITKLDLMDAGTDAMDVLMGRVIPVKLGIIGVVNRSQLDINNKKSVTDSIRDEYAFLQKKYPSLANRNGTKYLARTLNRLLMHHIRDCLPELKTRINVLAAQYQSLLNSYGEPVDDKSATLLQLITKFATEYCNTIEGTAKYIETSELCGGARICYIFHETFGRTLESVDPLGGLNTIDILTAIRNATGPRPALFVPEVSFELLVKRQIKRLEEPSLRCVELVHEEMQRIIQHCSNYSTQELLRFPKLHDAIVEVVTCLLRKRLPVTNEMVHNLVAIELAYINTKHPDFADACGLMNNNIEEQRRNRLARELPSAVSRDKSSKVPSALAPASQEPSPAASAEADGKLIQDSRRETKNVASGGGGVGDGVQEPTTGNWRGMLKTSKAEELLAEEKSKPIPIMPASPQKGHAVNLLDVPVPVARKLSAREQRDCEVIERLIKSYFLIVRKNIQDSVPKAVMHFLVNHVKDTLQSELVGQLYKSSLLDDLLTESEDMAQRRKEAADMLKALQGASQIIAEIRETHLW

1433f_human YWHAH, sequence (Q04917 whole entry): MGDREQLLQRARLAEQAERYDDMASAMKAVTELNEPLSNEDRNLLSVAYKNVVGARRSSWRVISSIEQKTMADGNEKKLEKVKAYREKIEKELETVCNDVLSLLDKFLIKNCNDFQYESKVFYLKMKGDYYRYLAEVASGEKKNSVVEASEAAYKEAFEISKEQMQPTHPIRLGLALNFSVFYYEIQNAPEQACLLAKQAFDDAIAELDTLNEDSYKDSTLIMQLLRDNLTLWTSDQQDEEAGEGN

Leucine-rich repeat serine/threonine-protein kinase 2 (Homo sapiens), Q5S007 E193K
effect of a mutation on the interaction [1]: decreasing interaction strength | effect of a mutation on the interaction [2]: increasing interaction strength
